# Laboratory results as given in article PMC6396373, “The herpesviral antagonist m152 reveals differential activation of STING‐dependent IRF and NF‐κB signaling and STING's dual role during MCMV infection” (The EMBO Journal, 2019).
# B1: endogenous murine STING (natural protein)
# chain: MPYSNLHPAIPRPRGHRSKYVALIFLVASLMILWVAKDPPNHTLKYLALHLASHELGLLLKNLCCLAEELCHVQSRYQGSYWKAVRACLGCPIHCMAMILLSSYFYFLQNTADIYLSWMFGLLVLYKSLSMLLGLQSLTPAEVSAVCEEKKLNVAHGLAWSYYIGYLRLILPGLQARIRMFNQLHNNMLSGAGSRRLYILFPLDCGVPDNLSVVDPNIRFRDMLPQQNIDRAGIKNRVYSNSVYEILENGQPAGVCILEYATPLQTLFAMSQDAKAGFSREDRLEQAKLFCRTLEEILEDVPESRNNCRLIVYQEPTDGNSFSLSQEVLRHIRQEEKEEVTMNAPMTSVAPPPSVLSQEPRLLISGMDQPLPLRTDLI
# notes: stimulator of interferon genes (STING), endogenous in immortalized B6J mouse embryonic fibroblasts; Dimers seen on non-reducing SDS-PAGE after ISD stimulation; also called Endogenous STING; source: endogenous, iMEF lysate
# Biological target: the molecule itself
# Assay: non-reducing SDS-PAGE with immunoblot; iMEF stably expressing ev or m152-V5, stimulated with 10 μg/ml ISD (also with Brefeldin A); lysis in 25 mM Tris-HCl pH 7.6, 150 mM NaCl, 1% IGEPAL CA-630, 1% sodium deoxycholate, 0.1% SDS; anti-STING blot for STING dimers
protein,measurement,value
B1,stoichiometry N,2
